# Assay results published in the supplement of paper PMC9170038.
# System: MS2 coat protein
# Experiment: apparent KD of MS2 coat protein; designed switch direction (-1 OFF switch, 1 ON switch): -1; higher = weaker reporter binding
# How it was run: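 Stalled E. coli RNA polymerase transcribed designed RNA switches on Illumina chips, which were then titrated with SNAP-549-labelled MS2 coat protein, doubling from 0.7 or 1.5 nM to 3 µM. Steps lasted from 0.8–1.5 h at the lowest concentration to 10–20 min at the highest. The apparent KD is each design's median over clusters of curve-fitted normalised fluorescence.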
# [1] = input ligand: microRNA oligo, concentration not stated
# [2] = Eterna round: R95, input ligand: FMN 200 uM
# [3] = Eterna round: R95, input ligand: microRNA oligo, concentration not stated
# [4] = Eterna round: R95, input ligand: none
Sequence,apparent KD of MS2 coat protein (input ligand: FMN 200 uM) [nM],apparent KD of MS2 coat protein (input ligand: none) [nM],apparent KD of MS2 coat protein [1] [nM],apparent KD of MS2 coat protein [2] [nM],apparent KD of MS2 coat protein [3] [nM],apparent KD of MS2 coat protein [4] [nM]
"CUGAGUUCAGGAUAUACAUGAGGAUCACCCAUGUAAAGUAGCUUGCGUACAGGCAGAUGUAGAAGGGAAUUCGG [Mod of JL 6 - Jieux - Exclusion 3] (Eterna round: R97, puzzle: Exclusion 3)",30.2,19,,,,
"AAAAAGGCAGGAUAUGCAUACACACAAAAAAAAAAACUGGGACAUGAGGAUCACCCAUGUAGAAGGGCCAAAAA [Dora Explored 8 - Jieux - Exclusion 2] (Eterna round: R96, puzzle: Exclusion 2)",60.1,54.1,53.7,,,
"AAAGUGGGCCAGAACAUGAGGAUCACCCAUGUCUGAAAUAGCAAGGAUAUUACGAGCAAAAGGAGUAAGAAGGUGCACAGUACG [Eternabot solution 41] (Eterna round: R96, puzzle: Exclusion NG 3)",24,23.6,15.4,,,
"AAAUUAGCAAGUAGGUCCGACAUGAGGAUCACCCAUGUAAUCUAAUAUUACGCUGCAUGAGAGUGCGCUCGUCUUAA [Sensor-V1 #18] (Eterna round: R97, puzzle: Sensor, turn-off variant 1)",196,220,,,,
"GGUACUCAAAGAGUACCAAUACGAACAUGAGGAUCACCCAUGUAGGAUAUGCUACUCAAAGAGUAGCAGAAGGACGUGUAUCUU [Far Half Aptamer v3] (Eterna round: R96, puzzle: Exclusion NG 3)",60.5,30.8,18.9,,,
"CAUGAUCUUCGGAUCAUGUACAUGAGGAUCACCCAUGUUACGAGUUGAUUUUCAUACAAGCUUUUUGCUCGUCUUAU [Sensor v3 - Turn-off variant 1 - 27] (puzzle: Sensor v3, turn-off variant 1)",,,,226,330,240
AGUCUGCGAGGAUAUACAUGAGGAUCACCCAUGUGCGAAGAACUAGUGAGGUCGAUUGGUAGAAGGCGCGGACA [Mat - Exclusion 3 - Mod of JL D88] (puzzle: Exclusion 3),,,,,241,
"CUCAUGUCAGGAUAUCAGGCAGGAAGCUGCCAAAAGUGGGAUGAGAAGGGACAUGAGGAUCACCCAUGUAAAUA [Mazasoti] (Eterna round: R97, puzzle: Exclusion 4)",355,218,,,,
CUGGUCCGAGGAUAUAUGAUGUGAAACAUGAGGAUCACCCAUGUAAUAUUAUGGAGGUAAAUAGAAGGCGGACUAG [Mat - Exclusion 5 - JL mod - D35] (puzzle: Exclusion 5),,,,45.3,55.2,60
"UAAUAGAUGGUUAGGAUAUGCUGGCCUAGGCCGCGGCAGAAGGAACAUGAGGAUCACCCAUGUAGUAGGAUCCA [Eternabot (L2) Solution 15] (Eterna round: R97, puzzle: Brourd's mod of Exclusion 4)",204,98.6,,,,
"UAUGAUUUAGGAUAUUGUACUGCUGACAUGAGGAUCACCCAUGUAUGCUAACUCGGCCGUCGAGAAGGAAAUUAUG [BotMod 28 - Jieux - Exclusion 5] (Eterna round: R97, puzzle: Exclusion 5)",26.1,52.6,,,,
GACGAGGGAGGAUAUGCACGAGGGAUAUCUGACAUGCCUAUACAUGAGGAUCACCCAUGUAGAAGGCCCAGAUA [Veorleerma] (puzzle: Exclusion 2),,,,,11.9,
UCGGCGCGAGGAUAUACGUUUGCUUUUUUUUGUUUUUGUGUACAUGAGGAUCACCCAUGUAGAAGGCGCGCCGC [Apr-15 SS2-21] (puzzle: Exclusion 2),,,,,22,
"UGUUGUUCAGGAUAUGAUGUAUUAUACAUGAGGAUCACCCAUGUGGGUCCUGAUUUGGCGUCAGAAGGGAAUGUUG [salish99_ex5_r4_110] (Eterna round: R97, puzzle: Exclusion 5)",205,150,,,,
